Laboratory results taken from US20230212587A1, “Mutant Hydroxyphenylpyruvate Dioxygenase Polypeptide, Encoding Gene Thereof and Use Therefor” (Beijing Dabeinong Biotechnology Co., Ltd., priority 2019, published 2023).

Tested on: Arabidopsis thaliana T1 plants
Assay: Topramezone tolerance of transgenic Arabidopsis thaliana T1 plants (pesticide damage grade by bleached leaf area, score, resistance evaluation)
Type: in vivo
Design: score: scale not given here
Details: for Classification and statistics of the grade of pesticide damage Grade 0 / Classification and statistics of the grade of pesticide damage Grade 1 / Classification and statistics of the grade of pesticide damage Grade 2 / Classification and statistics of the grade of pesticide damage Grade 3 / Classification and statistics of pesticide damage grade Grade 0 / Classification and statistics of pesticide damage grade Grade 1 / Classification and statistics of pesticide damage grade Grade 2 / Classification and statistics of pesticide damage grade Grade 3: number of plants (of 16) in this grade; for Classification and statistics of the grade of pesticide damage Grade 0 / Classification and statistics of the grade of pesticide damage Grade 1 / Classification and statistics of the grade of pesticide damage Grade 2 / Classification and statistics of the grade of pesticide damage Grade 3 / Scores / Resistance evaluation / Classification and statistics of pesticide damage grade Grade 0 / Classification and statistics of pesticide damage grade Grade 1 / Classification and statistics of pesticide damage grade Grade 2 / Classification and statistics of pesticide damage grade Grade 3: 7 DAT
From the text: The Arabidopsisthaliana T1 plants into which the AsHPPDm-F372A-02 nucleotide sequence was introduced, Arabidopsis thaliana T1 plants into which the AsHPPD-02 nucleotide sequence was introduced and wild-type Arabidopsisthaliana plants (18 days after sowing) were sprayed with topramezone at four different concentrations, i.e., 25 g ai/ha (one-fold field concentration, 1×), 50 g ai/ha (two-fold field concentration, 2×), 100 g ai/ha (four-fold field concentration, 4×) and 0 g ai/ha (water, 0×) to determine the tolerance of Arabidopsisthaliana to the herbicide. The degree of damage caused by the herbicide was measured for each plant according to the proportion of bleached leaf area (the proportion of bleached leaf area=bleached leaf area/total leaf area×100%) 7 days after spraying (7 DAT): the case where there is basically no bleached phenotype is defined as grade 0, the case where the proportion of bleached leaf area is less than 50% is defined as grade 1,the case where the proportion of bleached leaf area is more than 50% is defined as grade 2, and the case where the proportion of bleached leaf area is 100% grade is defined as grade 3.
According to the method as described above in point 6 of Example 1, the aforementioned Arabidopsisthaliana T1 plants and wild-type Arabidopsisthaliana plants (18 days after sowing) were sprayed with topramezone at three different concentrations respectively, i.e., 25 g ai/ha (one-fold field concentration, 1×), 100 g ai/ha (four-fold field concentration, 4×) and 0 g ai/ha(water, 0×) to detect the tolerance of Arabidopsisthaliana to the herbicide.
According to the method as described above in point 6 of Example 1, the aforementioned Arabidopsisthaliana T1 plants and wild-type Arabidopsisthaliana plants (18 days after sowing) were sprayed with topramezone at three different concentrations respectively, i.e., 25 g ai/ha (one-fold field concentration, 1x), 100 g ai/ha (four-fold field concentration, 4x) and 0 g ai/ha (water, 0x) to detect the tolerance of Arabidopsisthaliana to the herbicide.
According to the method as described above in point 6 of Example 1, the above-mentioned Arabidopsisthaliana T1 plants, Arabidopsisthaliana T1 plants into which the AsHPPD-02 nucleotide sequence was introduced, Arabidopsisthaliana T1 plants into which the PfHPPD-02 nucleotide sequence was introduced, and wild-type Arabidopsisthaliana plants (18 days after sowing) were sprayed with topramezone at four different concentrations respectively, that is, 25 g ai/ha (one-fold field concentration, 1x), 50 g ai/ha (two-fold field concentration, 2x), 100 g ai/ha (four-fold field concentration, 4x) and 0 g ai/ha (water, Ox) to detect the herbicide tolerance of Arabidopsisthaliana.
According to the method as described in point 6 of Example 1, the above-mentioned Arabidopsisthaliana T1 plants and wild-type Arabidopsisthaliana plants (18 days after sowing) were sprayed with topramezone at two different concentrations respectively, that is, 25 g ai/ha (one-fold field concentration, 1x) and 100 g ai/ha (four-fold field concentration, 4x) to detect the herbicide tolerance of Arabidopsisthaliana,. […]

[1] = non-372 position mutants, number of plants (of 20) in this grade, topramezone 25 g ai/ha (1x)
[2] = non-372 position mutants, number of plants (of 20) in this grade, topramezone 100 g ai/ha (4x)
[3] = topramezone 25 g ai/ha (1x), HPPD from Avena sativa source
[4] = topramezone 25 g ai/ha (1x), number of plants, HPPD from Avena sativa source
[5] = topramezone 25 g ai/ha, mutation combination, Table 8
[6] = topramezone 50 g ai/ha (2x), HPPD from Avena sativa source
[7] = topramezone 50 g ai/ha (2x), number of plants, HPPD from Avena sativa source
[8] = topramezone 100 g ai/ha (4x), HPPD from Avena sativa source
[9] = topramezone 100 g ai/ha (4x), number of plants, HPPD from Avena sativa source
[10] = topramezone 100 g ai/ha, mutation combination, Table 8
[11] = HPPDs from different species, topramezone 25 g ai/ha (1x)
[12] = HPPDs from different species, topramezone 100 g ai/ha (4x)

B1: AsHPPD-02: Avena sativa native HPPD, SEQ ID NO: 1; gene SEQ ID NO: 3 (protein, listed as Avena sativa)
chain: MPPTPATATGAAAAAVTPEHAARSFPRVVRVNPRSDRFPVLSFHHVELWCADAASAAGRFSFALGAPLAARSDLSTGNSAHASLLLRSGALAFLFTAPYAPPPQEAATAAATASIPSFSADAARTFAAAHGLAVRSVGVRVADAAEAFRVSVAGGARPAFAPADLGHGFGLAEVELYGDVVLRFVSYPDETDLPFLPGFERVSSPGAVDYGLTRFDHVVGNVPEMAPVIDYMKGFLGFHEFAEFTAEDVGTTESGLNSVVLANNSEAVLLPLNEPVHGTKRRSQIQTYLEYHGGPGVQHIALASNDVLRTLREMRARTPMGGFEFMAPPQAKYYEGVRRIAGDVLSEEQIKECQELGVLVDRDDQGVLLQIFTKPVGDRPTFFLEMIQRIGCMEKDEVGQEYQKGGCGGFGKGNFSELFKSIEDYEKSLEVKQSVVAQKS
modifications: AsHPPD Amido Acid Sequence
B1 was tested, and the “tolerance to topramezone, in words” value (Arabidopsis thaliana T1 plants sprayed with topramezone) was “no or relatively low tolerance”, the “Grade 0” value [1] was 0 and the “Grade 1” value [1] was 5. The “Grade 2” value [1] was 13, the “Grade 3” value [1] was 2 and the “Grade 0” value [2] was 0. The “Grade 1” value [2] was 0, the “Grade 2” value [2] was 4 and the “Grade 3” value [2] was 16. For the same molecule, the score (non-372 position mutants, score for pesticide damage 0-100, topramezone 25 g ai/ha (1x)) was 62, the score (non-372 position mutants, score for pesticide damage 0-100, topramezone 100 g ai/ha (4x)) was 93 and the “Resistance Grade” value (non-372 position mutants, topramezone 25 g ai/ha (1x)) was “poorly resistant (poorly resistant plants (scores 34-67))”. The “Resistance Grade” value (non-372 position mutants, topramezone 100 g ai/ha (4x)) was “non-resistant (non-resistant plants (scores 68-100))”, the “Classification and statistics of the grade of pesticide damage Grade 0” value (topramezone 25 g ai/ha (1x)) was 0 and the “Classification and statistics of the grade of pesticide damage Grade 1” value (topramezone 25 g ai/ha (1x)) was 4. For the same molecule, the “Classification and statistics of the grade of pesticide damage Grade 2” value (topramezone 25 g ai/ha (1x)) was 12, the “Classification and statistics of the grade of pesticide damage Grade 3” value (topramezone 25 g ai/ha (1x)) was 0 and the “Classification and statistics of the grade of pesticide damage Grade 0” value (topramezone 50 g ai/ha (2x)) was 0. For the same molecule, the “Classification and statistics of the grade of pesticide damage Grade 1” value (topramezone 50 g ai/ha (2x)) was 0, the “Classification and statistics of the grade of pesticide damage Grade 2” value (topramezone 50 g ai/ha (2x)) was 6 and the “Classification and statistics of the grade of pesticide damage Grade 3” value (topramezone 50 g ai/ha (2x)) was 10. The “Classification and statistics of the grade of pesticide damage Grade 0” value (topramezone 100 g ai/ha (4x)) was 0, the “Classification and statistics of the grade of pesticide damage Grade 1” value (topramezone 100 g ai/ha (4x)) was 0 and the “Classification and statistics of the grade of pesticide damage Grade 2” value (topramezone 100 g ai/ha (4x)) was 4. For the same molecule, the “Classification and statistics of the grade of pesticide damage Grade 3” value (topramezone 100 g ai/ha (4x)) was 12, the “tolerance to topramezone, in words” value (saturation mutation of HPPD from Avena sativa source (label F372X = AsHPPDm-F372X), topramezone 25, 50, 100 g ai/ha) was “no or low tolerance” and the Scores (score for pesticide damage 0-100, topramezone 25 g ai/ha (1x)) was 58. The Scores (score for pesticide damage 0-100, topramezone 50 g ai/ha (2x)) was 88, the Scores (score for pesticide damage 0-100, topramezone 100 g ai/ha (4x)) was 92 and the Resistance evaluation (topramezone 25 g ai/ha (1x)) was “poorly resistant (poorly resistant plants (scores 34-67))”. The “Resistance Grade” value [3] was “Poorly resistant”, the score [3] was 57 and the “Grade 0” value [4] was 2. The “Grade 1” value [4] was 2, the “Grade 2” value [4] was 16 and the “Grade 3” value [4] was 0. For the same molecule, the “Grade 0 (number of plants)” value [5] was 2, the “Grade 1 (number of plants)” value [5] was 2 and the “Grade 2 (number of plants)” value [5] was 16. The “Grade 3 (number of plants)” value [5] was 0, the “Resistance Grade” value [5] was “Poorly resistant” and the score [5] was 57. The Resistance evaluation (topramezone 50 g ai/ha (2x)) was “non-resistant (non-resistant plants (scores 68-100))”, the “Resistance Grade” value [6] was “Non-resistant” and the score [6] was 87. For the same molecule, the “Grade 0” value [7] was 0, the “Grade 1” value [7] was 2 and the “Grade 2” value [7] was 4. The “Grade 3” value [7] was 14, the Resistance evaluation (topramezone 100 g ai/ha (4x)) was “non-resistant (non-resistant plants (scores 68-100))” and the “Resistance Grade” value [8] was “Non-resistant”. The score [8] was 93, the “Grade 0” value [9] was 0 and the “Grade 1” value [9] was 0. The “Grade 2” value [9] was 4, the “Grade 3” value [9] was 16 and the “Grade 0 (number of plants)” value [10] was 0. The “Grade 1 (number of plants)” value [10] was 0, the “Grade 2 (number of plants)” value [10] was 4 and the “Grade 3 (number of plants)” value [10] was 16. For the same molecule, the “Resistance Grade” value [10] was “Non-resistant” and the score [10] was 93.

B2: PfHPPD-02: native Pseudomonas fluorescens HPPD, SEQ ID NO: 27 (protein, listed as Pseudomonas fluorescens)
chain: MADLYENPMGLMGFEFIEFASPTPGTLEPIFEIMGFTKVATHRSKNVHLYRQGEINLILNNEPNSIASYFAAEHGPSVCGMAFRVKDSQKAYNRALELGAQPIHIDTGPMELNLPAIKGIGGAPLYLIDRFGEGSSIYDIDFVYLEGVERNPVGAGLKVIDHLTHNVYRGRMVYWANFYEKLFNFREARYFDIKGEYTGLTSKAMSAPDGMIRIPLNEESSKGAGQIEEFLMQFNGEGIQHVAFLTDDLVKTWDALKKIGMRFMTAPPDTYYEMLEGRLPDHGEPVDQLQARGILLDGSSVEGDKRLLLQIFSETLMGPVFFEFIQRKGDDGFGEGNFKALFESIERDQVRRGVLTAD
modifications: PfHPPD Amino Acid Sequence
In the case of B2, the “Classification and statistics of pesticide damage grade Grade 0” value [11] is reported as 0, the “Classification and statistics of pesticide damage grade Grade 1” value [11] is reported as 0 and the “Classification and statistics of pesticide damage grade Grade 2” value [11] is reported as 0. The “Classification and statistics of pesticide damage grade Grade 3” value [11] was 16, the “Classification and statistics of pesticide damage grade Grade 0” value [12] was 0 and the “Classification and statistics of pesticide damage grade Grade 1” value [12] was 0. The “Classification and statistics of pesticide damage grade Grade 2” value [12] was 0, the “Classification and statistics of pesticide damage grade Grade 3” value [12] was 16 and the Scores (HPPDs from different species, score for pesticide damage 0-100, topramezone 25 g ai/ha (1x)) was 100. The Scores (HPPDs from different species, score for pesticide damage 0-100, topramezone 100 g ai/ha (4x)) was 100, the Resistance evaluation [11] was “non-resistant (non-resistant plants (scores 68-100))” and the Resistance evaluation [12] was “non-resistant (non-resistant plants (scores 68-100))”. For the same molecule, the “tolerance to topramezone, in words” value (saturation mutation of HPPD from Pseudomonas fluorescens source (label F372X = PfHPPDm-F372X), topramezone 25, 50, 100 g ai/ha) was “no tolerance”, the “Grade 0 (number of plants)” value [5] was 0 and the “Grade 1 (number of plants)” value [5] was 0. The “Grade 2 (number of plants)” value [5] was 0, the “Grade 3 (number of plants)” value [5] was 20 and the “Resistance Grade” value [5] was “Non-resistant”. The score [5] was 100, the “Grade 0 (number of plants)” value [10] was 0 and the “Grade 1 (number of plants)” value [10] was 0. For the same molecule, the “Grade 2 (number of plants)” value [10] was 0, the “Grade 3 (number of plants)” value [10] was 20 and the “Resistance Grade” value [10] was “Non-resistant”. For the same molecule, the score [10] was 100.
